Numbering of substitutions follows the chain as printed.
B1: hu2H1L1 (antibody, human IgG1, kappa, V domains shown)
VH: EVQLVESGGGLVQPGGSLRLSCAASGFTFSDYYMAWVRQAPGKGLEWVANINFDGSSTYYLDSLKSRFTISRDNAKNSLYLQMNSLRAEDTAVYYCARDLDGYYGYFDVWGQGTTVTVSS
VL: EIVLTQSPDFQSVTPKEKVTITCSASSSVSHMYWYQQKPDQSPKLLIYRTSNLASGVPSRFSGSGSGTDFTLTINSLEAEDAATYYCQQYHSYPLMFGQGTKLEIKR
B2: hu27H1L6 (antibody, human IgG1, kappa)
heavy: not shown
light: QIVLTQSPDFQSVTPKEKVTIQCSASSSVSYMYWYQQKPDQSPKPWIYRTSNLASGVPSRFSGSGSGTDYTLTINSLEAEDAATYYCQQYHSYPLTFGQGTKLEIKRTVAAPSVFIFPPSDEQLKSGTASVVCLLNNFYPREAKVQWKVDNALQSGNSQESVTEQDSKDSTYSLSSTLTLSKADYEKHKVYACEVTHQGLSSPVTKSFNRGEC
B3: hu15H4L2 (antibody, human IgG1, kappa, V domains shown)
VH: EFQLVQSGAEVKKPGASVKVSCKASGYSFTDHNMNWVRQAPGQRLEWMGLINPNYGTADYNQKFKGRVTLTVDQSATTAYMELSSLRSEDTAVYYCARGSSLFAYWGQGTLVTVSS
VL: DIQMTQSPSSLSASVGDRVTITCKASQGVDTAVAWYQQKPGKSPKLLIYWASTRHTGVPDRFSGSGSGTDFTLTISSLQPEDVATYYCQQYSRYPLTFGQGTKLEIKR
B4: hu43H3L2 (antibody, human IgG1, kappa, V domains shown)
VH: EVQFVESGGGLVQPGGSLRLSCAASGFTFSNYWMNWLRQAPGKGLEWVAQVRLKSDNYATHYAESVKGRFTISREDAKNSAYLQMNSLRAEDTAVYYCSENYYGPAGPFDFWGQGTTVTVSS
VL: B3 VL with G28N, D30H, A32S, W50S, T53N, H55Y, T56S, D60S, R93S
B5: hu41H2L2 (antibody, human IgG1, kappa, V domains shown)
VH: EVQLVQSGAEVKKPGASVKVSCKASGYTFTSYGISWVRQAPGQGLEWMGEIFPRRGNTYYNEKFRGRVTLTADKSTSTAYMELRSLRSDDTAVYYCARVFDGYYNYAMDYWGQGTTVTVSS
VL: DIQMTQSPSSLSASVGDRVTITCRASQDIGSSLNWLQQKPGKAIKRLIYATSSLDSGVPSRFSGSRSGTDYTLTISSLQPEDFATYYCLQYASSPYTFGGGTKVEIKR
B6: hu50H1L2 (antibody, human IgG1, kappa)
heavy: not shown
light: DVFMTQSPLSLPVTPGEPASISCRSSQSILHSNGNTYLEWYLQKPGQSPQLLIYRVSNRFSGVPDRFSGSGSGTDFTLKISRVEAEDVGVYYCFQGLHVPPTFGQGTKLEIKRTVAAPSVFIFPPSDEQLKSGTASVVCLLNNFYPREAKVQWKVDNALQSGNSQESVTEQDSKDSTYSLSSTLTLSKADYEKHKVYACEVTHQGLSSPVTKSFNRGEC
notes: also called hu50L2H1
B7: hu31H1L1 (antibody, human IgG1, kappa, V domains shown)
VH: EVQLVESGGGLVQPGGSLRLSCAASGFTFSDYYMAWVRQAPGKGLEWVASINYDGSSTYYLDSLKSRFTISRDNAKNSLYLQMNSLRAEDTAVYYCAGSDGYWAWFAYWGQGTLVTVSS
VL: DIQMTQSPSSLSASVGDRVTITCRASGNIHNYLAWYQQKPGKAPKLLIYNAETLADGVPSRFSGSGSGTDFTLTISSLQPEDFATYYCQHFWSTPPTFGGGTKVEIKR
B8: hu46H2L2 (antibody, human IgG1, kappa, V domains shown)
VH: EVQLVESGGGLVKPGGSLRLSCAASGFTFSNYGMSWVRQAPGKGLEWVSTIGSGGGYTYYSDSVKGRFTISRDNAKNSLYLQMNSLRAEDTAVYYCVRHPQIGYWGQGTLVTVSS
VL: DIQMTQSPSSLSASVGDRVTITCKASQSVGTAVAWYQQKPGKAPKLLIYSASSRYTGVPSRFSGSGSGTDFTLTISSLQPEDFADYFCHQYSSYPLTFGGGTKVEIKR
B9: chi73 (antibody, human IgG1, kappa, V domains shown)
VH: QVQLQQSGPELVKPGASVKISCKASGYAFSTSWMNWVKERPGKGLEWIGRIYPGDGDTKYNGKFQGKATLTADKSSSTAYMKLSSLTSEDSAVYFCVRSIYYLYYFDYWGQGTTLTVSS
VL: DIQMTQPTSSLSASLGDRVTISCSTSQDIYNNLSWFQQKPDGTVRLLIYYTSSLHSGVPSRFSGSGSGTDYSLTISNLEPEDIATYYCQQYNNLPFTFGGGTNLEIRR
B10: hu71H3L2 (antibody, human IgG1, kappa)
heavy: not shown
light: DVVVTQTPLSLPVTPGEPASISCRSSQSLVHSYGNTYLHWYLQKPGQSPQLLIYKVSNRFSGVPDRFSGSGSGTDFTLKISRVEAEDVGVYYCSQTTHVPWTFGGGTKVEIKRTVAAPSVFIFPPSDEQLKSGTASVVCLLNNFYPREAKVQWKVDNALQSGNSQESVTEQDSKDSTYSLSSTLTLSKADYEKHKVYACEVTHQGLSSPVTKSFNRGEC
notes: also called hu71L2H3
B11: hu27H1L1 (antibody, human IgG1, kappa)
heavy: not shown
light: B2 light with Q1E, Q22T, Y70F
B12: hu27H1L4 (antibody, human IgG1, kappa)
heavy: not shown
light: B2 light with Q1E, Y70F
B13: hu27H1L3 (antibody, human IgG1, kappa)
heavy: not shown
light: B2 light with Q22T
B14: hu27H1L5 (antibody, human IgG1, kappa)
heavy: not shown
light: B2 light with Q1E
B15: Chi31 (antibody, human IgG1, kappa, V domains shown)
VH: EVKLVESEGGLVQPGSSKKLSCTASGFTFSDYYMAWVRQVPEKGLEWVASINYDGSSTYYLDSLKSRFIISRDNAKNNLYLQMNSLKSEDTATYYCAGSDGYWAWFAYWGQGTLVTVSA
VL: DIQMTQSPASLSASVGEAVTITCRASGNIHNYLAWYQQKQGKSPQLLVYNAETLADGVPSRFSGSGSGTQFSLKINSLRPEDFGSYYCQHFWSTPPTFGGGTKLEIKR
B16: PL-12 (bispecific antibody)
chain 1: not shown
chain 2: DIVLTQSPASLAVSPGQRATITCRASESVSIHGTHLMHWYQQKPGQPPKLLIYAASKLESGVPARFSGSGSGTDFTLTINPVEAEDTANYYCQQSFEDPLTFGQGTKLEIKRTVASGIPPKIECLPIDISIDEGKCLTVASAFTGEPTPEVTWSTGGRKIHSQEQGRFHIENTDDSTTLTIKDVQKQDGGLYTLTLRNEFGSDSATVNIHIRSI
chain 3: not shown
chain 4: not shown
B17: PL-4 (bispecific antibody)
chain 1: not shown
chain 2: B16 chain 2 with R112G, T113G, V114G, A115G, C136V, A142C
chain 3: not shown
chain 4: not shown
B18: PL-15 (bispecific antibody)
chain 1: not shown
chain 2: B16 chain 2
chain 3: not shown
chain 4: not shown
B19: PL-2 (bispecific antibody)
chain 1: not shown
chain 2: B16 chain 2 with R112G, T113G, V114G, A115G, C136V
chain 3: not shown
chain 4: not shown
B20: PL-1 (bispecific antibody)
chain 1: not shown
chain 2: B16 chain 2 with R112G, T113G, V114G, A115G, C136V, S176L, T180I
chain 3: not shown
chain 4: not shown
B21: PL-13 (bispecific antibody)
chain 1: not shown
chain 2: B16 chain 2 with C136V, A142C
chain 3: not shown
chain 4: not shown
B22: PL-3 (bispecific antibody)
chain 1: not shown
chain 2: B16 chain 2 with R112G, T113G, V114G, A115G
chain 3: not shown
chain 4: not shown
B23: PL-17 (bispecific antibody)
chain 1: not shown
chain 2: B16 chain 2 with C136V
chain 3: not shown
chain 4: not shown
B24: PL-18 (bispecific antibody)
chain 1: not shown
chain 2: B16 chain 2
chain 3: not shown
chain 4: not shown
B25: PL-19 (bispecific antibody)
chain 1: not shown
chain 2: B16 chain 2 with C136V, A142C
chain 3: not shown
chain 4: not shown
B26: PL-14 (bispecific antibody)
chain 1: not shown
chain 2: B16 chain 2 with C136V
chain 3: not shown
chain 4: not shown

target: T1, human PSMA antigen (R&D SYSTEM, 4234-ZN-010) (human, UniProt Q04609 44-750); test: ELISA, plate-bound PSMA antigen
T1 construct: bought antigen
T1 sequence (Q04609 44-750 limits assumed): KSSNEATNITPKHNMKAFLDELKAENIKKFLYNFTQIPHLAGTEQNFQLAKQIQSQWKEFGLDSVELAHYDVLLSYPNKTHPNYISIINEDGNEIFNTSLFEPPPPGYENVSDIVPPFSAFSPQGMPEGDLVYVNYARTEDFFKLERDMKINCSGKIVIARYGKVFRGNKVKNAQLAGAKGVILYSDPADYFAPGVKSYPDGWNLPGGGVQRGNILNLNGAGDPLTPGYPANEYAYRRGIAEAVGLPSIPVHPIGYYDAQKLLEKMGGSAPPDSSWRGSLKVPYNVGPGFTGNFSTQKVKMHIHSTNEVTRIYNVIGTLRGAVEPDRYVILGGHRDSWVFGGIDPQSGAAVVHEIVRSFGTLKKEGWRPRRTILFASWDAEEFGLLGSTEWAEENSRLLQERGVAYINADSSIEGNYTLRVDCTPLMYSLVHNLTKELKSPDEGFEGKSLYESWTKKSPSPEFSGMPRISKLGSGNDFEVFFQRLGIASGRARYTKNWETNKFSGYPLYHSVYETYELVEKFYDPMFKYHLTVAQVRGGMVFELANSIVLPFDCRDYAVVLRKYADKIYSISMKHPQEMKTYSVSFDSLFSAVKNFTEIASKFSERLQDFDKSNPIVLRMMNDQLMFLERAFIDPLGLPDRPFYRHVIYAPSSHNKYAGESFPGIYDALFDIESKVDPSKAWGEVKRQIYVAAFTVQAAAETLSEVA
Protocol: To test the ability of the PSMA-targeting humanized antibodies of the present disclosure to bind to PSMA antigen, the ELISA method was used in this test example to measure the binding of the PSMA-targeting humanized antibodies to human PSMA antigen (purchased from R&D SYSTEM, 4234-ZN-010). The specific steps are as follows: A 96-well plate was coated with PSMA antigen at 1 μg/well and placed at 4° C. overnight. After the supernatant was discarded, the plate was blocked with 5% skim milk for 2 h. Different concentrations of humanized antibodies were prepared using 1% BSA. The initial concentration was 10 μg/mL and was serially diluted 4-fold to obtain 12 concentrations. After the blocked 96-well plate was washed twice, the […] was added, and the plate was incubated at 4° C. for 1 h. After four washes, the plate was incubated with Strepidation-HRP secondary antibody (1:10,000) at 4° C. for 1 h. After color development with TMB, the reaction was stopped with 0.1 M sulfuric acid.

Row | EC50 [µg/mL] | Top (maximum absorbance) [absorbance] | Binder
1 | 0.0354 | 0.975 | B1
2 | 0.398 | 0.553 | B2
3 | 0.0421 | 2.23 | B3
4 | 1.06 | 0.245 | B4
5 | 0.61 | 0.421 | B5
6 | 0.0421 | 1.3 | B6
7 | 0.0864 | 1.76 | B7
8 | 0.0365 | 1.67 | B8
9 | 0.029 | 2.08 | B9
10 | 0.0589 | 0.952 | B10

target: T2, human PSMA on cells (Cho-hPSMA, CHO-K1 cells overexpressing full-length human PSMA) (human, UniProt Q04609 1-750); test: cell ELISA (OD450), Cho-hPSMA cells
T2 construct: whole, on cells; also called cell surface PSMA; PSMA-expressing Lncap cells
T2 sequence (Q04609 whole entry): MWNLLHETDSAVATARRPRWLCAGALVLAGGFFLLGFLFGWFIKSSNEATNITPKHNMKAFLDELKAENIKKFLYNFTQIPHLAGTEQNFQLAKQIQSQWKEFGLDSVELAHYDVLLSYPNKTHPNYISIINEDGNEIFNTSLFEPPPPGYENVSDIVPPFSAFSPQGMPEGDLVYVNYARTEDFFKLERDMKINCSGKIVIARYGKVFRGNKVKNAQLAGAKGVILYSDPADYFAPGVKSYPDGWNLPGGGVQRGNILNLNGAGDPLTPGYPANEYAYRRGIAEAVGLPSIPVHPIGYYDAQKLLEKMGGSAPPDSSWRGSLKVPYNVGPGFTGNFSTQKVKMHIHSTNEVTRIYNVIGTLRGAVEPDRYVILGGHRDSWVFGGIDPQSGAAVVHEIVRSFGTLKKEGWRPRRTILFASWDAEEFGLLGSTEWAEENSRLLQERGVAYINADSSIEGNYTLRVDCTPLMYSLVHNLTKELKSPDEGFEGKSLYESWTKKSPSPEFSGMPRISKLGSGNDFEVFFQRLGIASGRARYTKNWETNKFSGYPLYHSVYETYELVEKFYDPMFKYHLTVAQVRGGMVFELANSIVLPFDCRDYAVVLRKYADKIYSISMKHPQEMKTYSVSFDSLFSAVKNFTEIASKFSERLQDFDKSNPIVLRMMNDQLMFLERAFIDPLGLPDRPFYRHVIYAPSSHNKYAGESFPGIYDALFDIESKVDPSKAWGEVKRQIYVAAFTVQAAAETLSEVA
Protocol: Experiment 2: Cells were cultured and inoculated onto a cell plate using the same method as in Experiment 1. The antibodies were serially diluted, and the antibody solutions were added to the cell plate at 100 μL/well. The plate was incubated at 4° C. for 1 h and then washed. An HRP-Goat Anti-human IgG (H+L) secondary antibody dilution (1:8000) was added to the cell plate at 100 μL/well, and the plate was incubated at 4° C. for 1 h and then washed by centrifugation. After color development with TMB, the reaction was stopped with 0.1 M sulfuric acid, and OD450 values were measured.

Row | EC50 [µg/mL] | Binder
11 | 2.77 | B2
12 | 0.0795 | B3
13 | 4.03 | B4
14 | 1.1 | B5
15 | 1.17 | B11
16 | 1.73 | B12
17 | 1.4 | B13
18 | 2.39 | B14
19 | 0.141 | B15
20 | 0.0603 | B6
21 | 0.142 | B7
22 | 0.0202 | B8
23 | 0.112 | B10

target: hPDL1 (human, UniProt Q9NZQ7 19-238); test: ELISA
Sequence (Q9NZQ7 19-238 limits assumed): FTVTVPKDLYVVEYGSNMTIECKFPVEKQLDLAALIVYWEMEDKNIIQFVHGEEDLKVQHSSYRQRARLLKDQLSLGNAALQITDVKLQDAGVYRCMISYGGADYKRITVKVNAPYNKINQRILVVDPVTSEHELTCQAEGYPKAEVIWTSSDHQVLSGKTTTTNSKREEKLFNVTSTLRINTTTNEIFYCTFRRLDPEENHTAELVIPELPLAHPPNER

Row | EC50 [nM] | Binder
24 | 0.5 | B16
25 | 0.7 | B17
26 | 1.4 | B18
27 | 0.5 | B19
28 | 1.6 | B20
29 | 0.5 | B21
30 | 0.6 | B22
31 | 1.4 | B23
32 | 1.6 | B24
33 | 1.6 | B25
34 | 1.3 | B26

target: hCTLA4 (human, UniProt P16410 36-161); test: ELISA
Sequence (P16410 36-161 limits assumed): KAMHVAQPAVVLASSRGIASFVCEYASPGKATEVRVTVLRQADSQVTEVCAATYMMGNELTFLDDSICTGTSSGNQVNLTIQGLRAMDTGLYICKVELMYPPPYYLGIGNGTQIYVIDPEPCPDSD

Row | EC50 [nM] | Binder
35 | 8 | B16
36 | 6.5 | B17
37 | 3.2 | B18
38 | 8 | B19
39 | 16.5 | B20
40 | 4.4 | B21
41 | 7.9 | B22
42 | 6.2 | B23
43 | 6.7 | B24
44 | 6.5 | B25
45 | 6 | B26

— patent US20250043022A1 (JIANGSU HENGRUI PHARMACEUTICALS, published 2025)
